The results in this text go back to patent US20250340623A1 (AC IMMUNE, published 2025).

The target of assay [1] is T1, alpha-synuclein seeds (UniProt P37840 1-140). In words: cell-based or functional assay.
The target in assay [2] is T2, 64-78aa.
T2 construct: also called alpha-synuclein peptide 64-78
T2 peptide: {Biotin-Ahx}-TNVGGAVVTGVTAVA
In words: indirect ELISA on biotinylated 15-mer peptide. The method, then:
(§1) Serum-free supernatants were harvested from stable hybridomas. The supernatants containing antibodies of interest were then screened by an indirect ELISA assay to determine epitopes. Epitopes were first determined using a library of 15-mer peptides covering the entire sequence of human alpha-synuclein protein, spanning amino acids (aa) 1-140 with 9aa offset and […] overlap. […] Briefly, streptavidin-coated ELISA plates were blocked overnight at 4° C. […] Plates were washed with PBS/0.05% Tween®20 and then incubated with the hybridoma supernatants at 1/100 dilution for 1 hour at 25° C.
A general note: In an ELISA, binding on a coated surface is turned into a signal by an enzyme label.

Assay [3] concerns the target T3, 82-96aa.
T3 construct: also called alpha-synuclein peptide 82-96
T3 peptide: {Biotin-Ahx}-VEGAGSIAAATGFVK
In words: indirect ELISA on biotinylated 15-mer peptide. As to the method:
as §1

The target of assay [4] is T4, 118-132aa.
T4 peptide: {Biotin-Ahx}-VDPDNEAYEMPSEEG
In words: indirect ELISA on biotinylated 15-mer peptide. The method, then: as §1

In assay [5] the target is T5, 46-60aa.
T5 construct: also called alpha-synuclein peptide 46-60
T5 peptide: {Biotin-Ahx}-EGVVHGVATVAEKTK
Nature of the assay: indirect ELISA on biotinylated 15-mer peptide. The method, then: as §1

In assay [6] the target is T6, 127-140aa.
T6 peptide: {Biotin-Ahx}-MPSEEGYQDYEPEA
Nature of the assay: indirect ELISA on biotinylated 15-mer peptide, supernatant 1/100. The method, then:
as §1

The target in assay [7] is T7, 91-105aa.
T7 peptide: {Biotin-Ahx}-ATGFVKKDQLGKNEE
In words: indirect ELISA on biotinylated 15-mer peptide. As to the method: as §1

Assay [8] deals with T8, 1-14aa.
T8 construct: also called alpha-synuclein peptide 1-14
T8 peptide: MDVFMKGLSKAKEG-biotin
In words: indirect ELISA on biotinylated 15-mer peptide. The method, then:
as §1

Assay [9] deals with T9, 1-15aa.
T9 construct: also called alpha-synuclein peptide 1-15
T9 peptide: {Biotin-Ahx}-MDVFMKGLSKAKEGV
Nature of the assay: indirect ELISA on biotinylated 15-mer peptide. As to the method: as §1

Assay [10] addresses T10, 10-24aa.
T10 construct: also called alpha-synuclein peptide 10-24
T10 peptide: {Biotin-Ahx}-KAKEGVVAAAEKTKQ
Nature of the assay: indirect ELISA on biotinylated 15-mer peptide. As to the method: as §1

Assay [11] has as its target T1, alpha-synuclein seeds. Nature of the assay: cell-based or functional assay. The source holds these as a separate data set.

Where no end group is shown, it is not given here. The star is where a group is joined. Biotin = O=C1N[C@H]2[C@H](CS[C@H]2CCCCC(=O)*)N1; Ahx = NCCCCCC(=O)O

B1: ACI-7067-1113D10-Ab1 (antibody, V domains shown)
VH: EVQLVESGGGLVQPKGSLKLSCAASGFTFNTYALHWVRQAPGKGLEWVARIRSKSSNYATYYADSVKDRFTISRDDSQSMLYLQMNNLKTEDTGMYYCVRGGVSPFDYWGQGTTLTVSS
VL: QIVLTQSPAIMSASPGEKVTMTCSASSSVSYMHWYQQKSGTSPKRWIYDTSKLASGVPARFSGSGSGTSYSLTISSMEAEDSATYYCQQWSNNPPTFGGGTKLEIK
notes: mouse hybridoma mAb; VH/VL only; also called 1113D10E3D5
Regarding B1, the “aggregation half-time (τ1/2) of seeded alpha-synuclein aggregation, ThT; no antibody 26.9 hours” value in assay [1] worked out at 30.1 h. Also, the binding result was “no binding (tested: supernatant 1/100)” in assay [2]; “no binding (tested: supernatant 1/100)” in assay [3]; “no binding (tested: supernatant 1/100)” in assay [4]; “no binding (tested: supernatant 1/100)” in assay [5]; “binds” in assay [6].

B2: ACI-7079-2602G4-Ab4 (antibody, V domains shown)
VH: EVQLVESGGGLVQPKGSLKLSCAASGFTFKTYAMHWVRQAPGKGLEWVARIRSKGSDYATYYADSVKDRFTISRDDSQSMLYLQMNNLKTEDTAMYFCVRGGADSWFAYWGQGTLVTVST
VL: QIVLTQSPAIMSASPGERITMTCTASSSVSYMHWYQQKSGTSPKRWIYDTSKLASGVPARFSGSGSGASYTLTISSMEAEDAATYYCQQWNRNPPTFGGGTQLAIK
notes: mouse hybridoma mAb; VH/VL only; also called 2602G4H1
Consider B2, for which the binding result in assay [3], in [7], in [4], in assay [8], in assay [9] and in assay [10] was “no binding (tested: supernatant 1/100)” throughout. The binding result is reported as “no binding (tested: supernatant 1/100)” in assay [5] and “binds” in assay [6].

B3: ACI-7079-2605B3-Ab2 (antibody, V domains shown)
VH: EVQLVESGGGLVQPKGSLKLSCAASGFIFKTYAMHWVRQAPGKGLEWVARIRSKGGNYATYFADSVKDRFTISRDDSQNMLYLQVNNLKIEDTAMYFCVRGGNYSWFAYWGQGTLVTVSA
VL: QIVLTQSPAIMSASPGEKVTMTCSASSSVTYMHWYQQKSGTSPKRWIYDTSQLASGVPARFSGSGSGTSHSLTISSMETEDAATYYCQQWTRNPPTFGGGTKLAIK
notes: mouse hybridoma mAb; VH/VL only; also called 2605B3D1
Consider B3, for which the binding result in assay [3], in assay [7], in [4], in assay [8], in assay [9] and in assay [10] was “no binding (tested: supernatant 1/100)” each time. In addition, the figures for the binding result in [5] and in [6] were “no binding (tested: supernatant 1/100)” and “binds”, respectively.

B4: ACI-7079-2501D10-Ab1 (antibody, V domains shown)
VH: EVQLVESGGGLVQPKGSLKVSCAASGFTFKTYAMHWVRQAPGKGLEWVARIRSENSNFAKYYADSVKDRFTISRDDSQSMLYLQMNNLKTEDTAMYYCVRGYNGSSLDYWGQGTTLTVSS
VL: QIVLTQSPAIMSAFPGERVTMTCSASSSVNYMHWYQQKSGTSPKRWIYDTSKLASGVPARFSGGGSGTSYSLTISNMEAEDAATYYCQQWRSNPPTFGGGTKLEIK
notes: mouse hybridoma mAb; VH/VL only; also called 2501D10C3
For B4, the binding result in assay [3], in assay [7], in assay [4], in assay [8], in assay [9] and in assay [10] was “no binding (tested: supernatant 1/100)” throughout. In addition, the figures for the binding result in assay [5] and in assay [6] were “no binding (tested: supernatant 1/100)” and “binds”, respectively.

B5: ACI-7067-1106A8-Ab2 (antibody, V domains shown)
VH: EVQLVESGGGLVQPKGSLKLSCAASGFTFNTYAMHWVRQAPGKGLEWVARIRSKGSNYATNYADSVKDRFTISRDDSQSMLYLQMNNLKTEDTAMYYCVRGHGSSYFSYWGQGTLVTVSA
VL: QIVLTQSPAIMSASPGEKVTMTCSASSSVSYMHWYQQKSGTSPKRWIYDTSNLASGVPARFSGSGSGTSYSLTISSMEAEDAATYYCQQWNSHPPTFGAGTKLELK
notes: mouse hybridoma mAb; VH/VL only; also called 1106A8H3
For the molecule B5, the binding result in assay [2] is “no binding (tested: supernatant 1/100)”; in assay [3], “no binding (tested: supernatant 1/100)”; in assay [4], “no binding (tested: supernatant 1/100)”; in assay [5] it was “no binding (tested: supernatant 1/100)”; in assay [6] it was “binds”.

B6: ACI-7079-2507B3-Ab1 (antibody, V domains shown)
VH: EVQLVESGGGLVQPKGSLKVSCAASGFTFKTYAMHWVRQAPGKGLEWVARIRSENSNFAKYYADSVKDRFTISRDDSQSMLYLQMHTLKTEDTAIYYCVRGYNGSSLDYWGQGTTLTVSS
VL: QIVLTQSPAIMSAFPGERVTMTCSASSSVNYMHWYQQKSGTSPKRWIYDTSKLASGVPARFSGGGSGTSYSLTISNMEAEDAATYYCQQWRSNPPTFGGGTKLEIK
notes: mouse hybridoma mAb; VH/VL only; also called 2507B3G8
For the molecule B6, the binding result in assay [3], in assay [7], in assay [4], in assay [8], in assay [9] and in assay [10] was “no binding (tested: supernatant 1/100)” throughout. Also, the binding result in [5] is “no binding (tested: supernatant 1/100)”; in [6] it was “binds”.

B7: ACI-7067-1108B11-Ab2 (antibody, V domains shown)
VH: EVQLVESGGGLVQPKGSLKLSCAASGFTFNTYAMHWVRQAPGKGLEWVARIRSKGSNYATNYADSVKDRFTISRDDSQSMLYLQMNNLKTEDTAMYYCVRGHGSSYFSYWGQGTLVTVSA
VL: QIVLTQSPAIMSASPGERITMTCSANSSVTYMHWYQQKSGTSPKRWIYDTSNLASGVPARFSGSGSGTSYSLTISSMEAEDAATYYCQQWKSHPPTFGAGTKLELK
notes: mouse hybridoma mAb; VH/VL only; also called 1108B11D3
Regarding B7, the “aggregation half-time (τ1/2) of seeded alpha-synuclein aggregation, ThT; no antibody 26.9 hours” value in assay [1] amounted to 33.3 h. Moreover, the binding result was “no binding (tested: supernatant 1/100)” in assay [2]; “no binding (tested: supernatant 1/100)” in [3]; “no binding (tested: supernatant 1/100)” in assay [4]; “no binding (tested: supernatant 1/100)” in assay [5]; “binds” in [6].

B8: ACI-7079-2603F3-Ab1 (antibody, V domains shown)
VH: EVQLVESGGGLVQPKGSLKLSCAASGFTFNTYAMHWVRQAPGKGLEWVARIRSKGSNYATYYADSVKDRFTISRDDSQSMLYLQMNNLKTEDTAMYYCVRGGGDSWFAYWGQGTLVTVSA
VL: QIVLTQSPAIMSASPGERVTMTCTASSSVSYMHWYQQKSGTSPKRWIYDTSKLASGVPARFSGSGSGASYTLTISSMEAEDAATYYCQQWNSNPPTFGGGTQLAIK
notes: mouse hybridoma mAb; VH/VL only; also called 2603F3H3
For the molecule B8, the binding result in [3], in assay [7], in [4], in [8], in [9] and in [10] was “no binding (tested: supernatant 1/100)” in each case. Besides, the binding result in [5] was “no binding (tested: supernatant 1/100)”; in [6], “binds”.

B9: ACI-4301D5_3108C10 (bispecific antibody, V domains shown)
VH 1: QVQLQQSGPELVRPGASVKISCKASGYRFTSYYIHWVKQRPGQGLEWIGWIYPGSDNTKHNDKFKGKATLTADTSSSTAYMQLSSLTSEDSAVYFCARDYDVGFGYWGQGTLVTVSS
VL 1: not shown
VH 2: ELQLVESGGGLVRPGGSLKLSCATSGFTFRNYAMSWVRQTPAKRLEWVATISDGGTYTFYSDNVKGRFTISRDNVKNTLYLQMSHLKSEDTAMYYCSRAGSGHWGQGTTLTVSS
VL 2: not shown
As for B9, the “IC50, percentage of de novo alpha-synuclein aggregates formed in cells after immunodepletion of seeds” value in [11] is 21.6 nM.

B10: ACI-3112H1_1101C8 (bispecific antibody, V domains shown)
VH 1: EVQLQQSGPELVKPGASVKISCKASGYTFSDYFMNWVKQSHGKSLEWIGDINPNNGGSSYIQKFKGKATLTVDKSSTTAYMELRSLTSEDSAVYYCARGSNYAMDSWGQGTSVTVSS
VL 1: DIVMSQSPSSLAVSAGEKVTMSCKSSQSLLNSRTRKNYLAWYQQKPGQSPKLLIYWASTRESGVPDRFTGSGSGTDFTLTISSVQAEDLAVYYCKQSYDLWTFGGGTKLEIK
VH 2: EVQLVESGGGLVQPKGSLKLSCAASGFSFNIYAMNWVRQAPGKGLEWVARIRSKSNNYATYYADSVKDRFTISRADSESMLYLQMNNLKTEDTAMYYCVRVGLRFYAMDYWGQGTSVTVSS
VL 2: DVLMTQTPLSLPVSLGDQASISCRSSQSIVHSNGNTYLEWYLQKPGQSPKLLIYKVSNRFSGVPDRFSGSGSGTDFTLKISRVEAEDLGVYYCFQGSQGPLTFGAGTKLELK
As to B10, the “IC50, percentage of de novo alpha-synuclein aggregates formed in cells after immunodepletion of seeds” value in [11] came out at 18 nM.
